This data set addresses T1, Dabcyl-LAQAHomoPheRSC(Fluorescein)-NH2.
T1 chain: LAQAFRSC
The experiment in a line: enzyme kinetics, initial velocities fitted to a pure competitive two-site model.

B1: Human ADAM10 protease containing the catalytic/disintegrin domains (protein)
chain: TTSAEKNTCQLYIQTDHLFFKYYGTREAVIAQISSHVKAIDTIYQTTDFSGIRNISFMVKRIRINTTADEKDPTNPFRFPNIGVEKFLELNSEQNHDDYCLAYVFTDRDFDDGVLGLAWVGAPSGSSGGICEKSKLYSDGKKKSLNTGIITVQNYGSHVPPKVSHITFAHEVGHNFGSPHDSGTECTPGESKNLGQKENGNYIMYARATSGDKLNNNKFSLCSIRNISQVLEKKRNNCFVESGQPICGNGMVEQGEECDCGYSDQCKDECCFDANQPEGRKCKLKPGKQCSPSQGPCCTAQCAFKSKSEKCRDDSDCAREGICNGFTALCPASDPKPNFTDCNRHTQVCINGQCAGSICEKYGLEECTCASSDGKDDKELCHVCCMKKMDPSTCASTGSVQWSRHFSGRTITLQPGSPCNDFRGYCDVFMRCRLVDADGPLARLKKAIFSPELYENIAE
Take B1: the “Ks (binding constant for substrate)” value is reported as “the binding constant, Ks for substrate was 16±4.6 µM”.
